From patent US20230270119A1, “BIOSTIMULANT AND BIOPROTECTIVE PEPTIDES AND THEIR USE IN AGRICULTURE” (priority 2020, published 2023)

Legend:
[1] = tested on: Spodoptera littoralis larvae; test: Bioassay on Spodoptera littoralis larvae fed with peptide-treated tomato leaves; assay type: in vivo
Protocol: Briefly, S. littoralis larvae were grown in a climate chamber at 25° C., 70% relative humidity (RH), with a 16-hour light and 8-hour dark photoperiod and fed with an artificial diet until completion of the first moult. For the bioassays, 150 larvae for each thesis were grown on tomato leaves for the entire duration of the second instar to adapt them to the different diet. The newly moulted third-instar larvae up to the moult stage were fed with plants on which a composition comprising peptides PS1-70 and PS1-120 had been applied at 100 pM and 100 fM concentrations in 1×PBS buffer. Larvae fed with plants treated with 1×PBS buffer only were used as a control. Bioassays were carried out under the same environmental conditions, in 32-well plastic trays containing 1.5% (w/v) agar and 0.005% (w/v) methyl parahydroxybenzoate, which are useful for creating a humid environment for maintaining cell turgor of tomato leaves. Each experimental group consisted of 32 larvae. The survival of the larvae was monitored daily, and their weight every other day. […] A significant decrease in the survival of larvae fed with leaves of plants treated with the peptides of the invention compared to those fed with leaves of the control plants was also observed for both assays (FIGS. 10B and 10D). […] The same assay scheme was carried out by the present inventors by feeding S. littoralis larvae with leaves treated with the peptide PS1-70 and with peptides having the sequences SEQ ID NO. 3, 5, and 8 at femtomolar concentration. […] A significant decrease was also observed in the survival of larvae fed with peptide-treated leaves compared to those fed with the control leaves (FIG. 11B). […] 8, SEQ ID NO. 3, and SEQ ID NO. 5 (FIG. 11B).

[2] = tested on: Botrytis cinerea; test: Botrytis cinerea necrosis areas on treated detached tomato leaves; assay type: in vivo, Botrytis cinerea on Solanum lycopersicum
Protocol: For the performance of assays on the phytopathogenic Botrytis cinerea and Alternaria alternata fungi, the present inventors used spores of this microorganism obtained from cultures on solid PDA (Potato Dextrose Agar) sporulation substrate. The plates were inoculated with 20 μl of a conidial suspension at a concentration of 1×10^6 spores/ml and incubated for 15 days at 25° C. in the presence of diffused light, so as to obtain complete sporulation. The spores were then collected in 5 ml of sterile water and, in order to remove the mycelium, were filtered through glass wool, washed with sterile distilled water and collected by centrifugation at room temperature. The concentration of spores suitable for inoculation (10^5-10^7 spores/ml) was determined by the serial dilution method using a Burker cell counting chamber for spore counting.
The assay was carried out on a detached leaf by taking a compound leaf for each treated tomato plant and for each control plant. Each leaflet of the compound leaf was marked with 3 markers in order to guide the subsequent application of the spores and detection of the pathogen developing necrotic areas.
The leaves were treated by applying 2 μl of a composition comprising the peptides PS1-70 and PS1-120 of the invention at a concentration of 100 pM, 100 fM or 1×PBS for the control leaves. After 6 hours, the time necessary for the perception of the peptides, the leaves were detached from the plant and inoculations with 10 μl of spore solution were carried out in the internerve spaces and near the previously marked points. Monitoring was carried out by measuring the necrosis areas (expressed in mm^2) 1, 3, 5, 8 days after inoculation of the pathogen. The necrosis areas recorded on the control leaves were much larger than those detected on plants treated with the peptides of the invention. This difference increased as a function of the time elapsed since inoculation. The resistance inducing effect of the picomolar treatment is already statistically significant from the first day of inoculation of the pathogen up to the eighth day where values of 33 mm^2 were reached on the control leaves, unlike the treated leaves where values not exceeding 18 mm^2 were recorded for both peptides (FIG. 12A).

[3] = tested on: Botrytis cinerea; test: Botrytis cinerea necrosis areas on treated vine leaves; assay type: in vivo, Botrytis cinerea on Vitis vinifera; conditions: day 8, control 43 mm^2 (FIG. 12D)
Source text: The present inventors also carried out tests aimed at determining the effects of exogenous application of the peptides of the invention, at picomolar and femtomolar concentrations, against the development of the necrotrophic fungus on Solanum melongena (eggplant) plants (FIG. 12C) and Vitis vinifera (vine) plants (FIG. 12D). […] The positive effect of the treatment was statistically significant from day 3 of inoculation of the pathogen to day 8 where values of 11 mm^2 were reached on the control leaves, unlike the treated leaves where values of 8.4 and 6.0 mm^2 were recorded on leaves treated with the peptides PS1-70 and PS1-120 at a concentration of 100 pM, and values of 6.2 and 4.10 mm^2 were recorded on leaves treated with said peptides at a concentration of 100 fM (FIG. 12C). Similar results were obtained on vine plants (FIG. 12D). The positive effect of the treatment was already statistically significant from day 1 of inoculation of the pathogen to day 8 where values of 43 mm^2 were reached on the control leaves, and values of 16.7 and 13.6 mm^2, respectively, were reached on leaves treated with the peptides PS1-70 and PS1-120 at a concentration of 100 pM, and values of 12 and 11.8 mm^2 were reached on leaves treated with said peptides at a concentration of 100 fM (FIG. 12D). Similar results were obtained on olive trees.

[4] = tested on: B. cinerea; test: Seed treatment: B. cinerea necrosis areas on leaves of plants born from treated tomato seeds; assay type: in vivo, Botrytis cinerea on tomato; conditions: leaves of 4-week-old plants born from seeds treated at 100 fM; day 8; control 11 mm^2 (FIG. 16)
Protocol: The mean necrosis areas were measured 1, 3 and 5 days after inoculation of the pathogen. The letters a, b indicate the statistical significance of the data (ANOVA), each letter representing a statistical group. The present inventors also assessed the protective effect conferred by the treatment with the peptides object of the invention directly on the seed. Tomato seeds were treated with a composition comprising the peptides at a concentration of 100 fM or with 1×PBS for the controls, allowed to dry and germinated in the dark on sterile adsorbent paper at 24° C. 4-week-old plant leaves were detached from the plant and inoculated with 10 μl of spore solution in the internerve spaces and near the previously marked points.

[5] = day 13, leaves treated at 100 fM, control 44 mg (FIG. 10C)
[6] = day 15, 100 pM, control 96.87% (FIG. 10B)
[7] = day 15, leaves treated at 100 pM, control 38 mg (FIG. 10A)
[8] = femtomolar, day 8, control 20 mm^2 (FIG. 12B)

| Molecule | average weight of larvae [1, 5] [mg] | survival rate of larvae [1, 6] [%] | average weight of larvae [1, 7] [mg] | necrosis areas [2, 8] [mm^2] | necrosis areas ([3]; 100 pM) [mm^2] | necrosis areas ([3]; 100 fM) [mm^2] | necrosis areas [4] [mm^2] | survival rate of larvae ([1]; day 13, 100 fM, control 100% (FIG. 10D)) [%] | average weight of larvae ([1]; day 13, femtomolar concentration, control 59 mg (FIG. 11A)) [mg] | survival rate of larvae ([1]; day 13, femtomolar concentration, control 100% (FIG. 11B)) [%] | necrosis areas ([2]; 100 fM, day 8, control 11.72 mm^2 (FIG. 13)) [mm^2] |
| --- | --- | --- | --- | --- | --- | --- | --- | --- | --- | --- | --- |
| PS1-120: recombinant peptide contained in the amino-terminal region of the Prosystemin polypeptide, free of Systemin; expressed in E. coli (protein, Peptide PS1-120, recombinant peptide contained in the amino-terminal region of the Prosystemin polypeptide, free of Systemin; expressed in E. coli) MGTPSYDIKNKGDDMQEEPKVKLHHEKGGDEKEKIIEKETPSQDINNKDTISSYVLRDDTQEIPKMEHEEGGYVKEKIVEKETISQYIIKIEGDDDAQEKLKVEYEEEEYEKEKIVEKET | 12 | 31.25 | 20 | 5.19 | 13.6 | 11.8 | 7.4 | – | – | – | – |
| PS1-70: recombinant peptide contained in the amino-terminal region of the Prosystemin polypeptide, free of Systemin; expressed in E. coli (protein, Peptide PS1-70, recombinant peptide contained in the amino-terminal region of the Prosystemin polypeptide, free of Systemin; expressed in E. coli) MGTPSYDIKNKGDDMQEEPKVKLHHEKGGDEKEKIIEKETPSQDINNKDTISSYVLRDDTQEIPKMEHEE | 11 | 34.37 | 15 | 6.69 | 16.7 | 12 | 7.1 | 0 | 22 | 31.25 | 7.69 |
